{"source": "paper PMC6365528", "key": {"[1]": {"substrate": "CC1=CC[C@@H]2C[C@H]1C2(C)C", "assay": "cells, lysate or membranes", "conditions": "Sf9 microsomes + MPB CPR, 1 mM NADPH, 50 mM potassium phosphate pH 7.4, 30 °C, 1 h"}, "[2]": {"substrate": "CC1=CC[C@H]2C[C@@H]1C2(C)C", "assay": "cells, lysate or membranes", "conditions": "Sf9 microsomes + MPB CPR, 1 mM NADPH, 50 mM potassium phosphate pH 7.4, 30 °C, 1 h"}}, "data": [{"protein": "CYP6DE1 (Dendroctonus ponderosae) (protein) MALIIAVGLLLSIILLYCVYSKWKFQHWTRKGVPQLNPRLFFGDTLPLVRGQALKDFHLGLYQKFKSTGAKCVGIYNAHMPELVPIDIILLKDIMVKDYSYFSSHGVFYHEKNVLTSHLFNIEGQSWKERRTKLTPVFTSAKMKQMFDTVASKSPGLVRLVGLSADANKPADIKEILSRFTTDVISGAAFGLECKSLYEPDNMFRAIGKEAFEPNALKLYIEYLFPRQLLGSIGYQTFSSRIVSYFSKVVNETIQYREKNNVQRNDFMQLMLQLKQHGSLVKEDGSVDVKKTETQITDREILSESFLMFLAGHETSSSTSTFALFALSQNQDIQEKVRNEINEVLERHNGKLGYDALMEMEYLDKVIRETLRKYPTVPVIPRRCTKDYQIKNTNTVIDKGTRLYIPVIGVHLDPEYYPDPERFDPERFSPENKAKRPDIAWMPFGEGPRQCLGMRFGLLQSKVALASLLPTFRFTINKAMKPPYIADAGTLVYMFKQDVLLDATRIN", "values": [{"measurement": "Km", "setting": "[1]", "result": "292 ± 1", "unit": "µM"}, {"measurement": "Vmax", "setting": "[1]", "result": 0.42, "unit": "µM/min"}, {"measurement": "kcat", "setting": "[1]", "result": 0.17, "unit": "s⁻¹"}, {"measurement": "kcat/Km", "setting": "[1]", "result": 576, "unit": "M⁻¹ s⁻¹"}, {"measurement": "Km", "setting": "[2]", "result": "160 ± 1", "unit": "µM"}, {"measurement": "Vmax", "setting": "[2]", "result": 0.96, "unit": "µM/min"}, {"measurement": "kcat", "setting": "[2]", "result": 0.37, "unit": "s⁻¹"}, {"measurement": "kcat/Km", "setting": "[2]", "result": 2320, "unit": "M⁻¹ s⁻¹"}]}]}
